{"source": "paper PMC10715030", "key": {"[1]": {"target": "c-type human lysozyme (human) (UniProt P61626)", "sequence (P61626 19-148)": "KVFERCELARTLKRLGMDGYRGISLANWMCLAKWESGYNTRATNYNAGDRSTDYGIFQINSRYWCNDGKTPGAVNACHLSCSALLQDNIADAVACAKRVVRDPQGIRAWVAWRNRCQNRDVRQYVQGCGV"}, "[2]": {"target": "AP205 capsid virus-like particle displaying the complementary Catcher (SpyCatcher-VLP) (not stated | Acinetobacter phage AP205)", "assay": "SDS-PAGE of covalent Tag/Catcher coupling (densitometry); N-SliC or C-SliC mixed with complementary SpyCatcher VLPs at a molar ratio of 1:3, 2 h, room temperature, PBS; covalently coupled band at ~45 kDa; coupling efficiency by densitometry (ImageQuant)"}}, "data": [{"substance": "SliC with the N-terminal SpyTag (N-SliC)", "values": [{"measurement": "lytic activity of HL (2.5 µM) on DQ lysozyme substrate (EnzChek Lysozyme Assay Kit), N-SliC 0-5 µM, 30 min at 37°C before substrate", "setting": "[1]", "result": "> 1.25", "unit": "µM"}, {"measurement": "cVLP subunits carrying SliC (of 180) (subunits per cVLP)", "setting": "[2]", "result": 140}, {"measurement": "coupling efficiency", "setting": "[2]", "result": 77, "unit": "%"}]}]}
